# Data: patent US20030186329A1, “Use of substrate subtraction libraries to distinguish enzyme specificities” (The Scripps Research Institute, priority 1998, published 2003)
# B1: fusion protein: maltose binding protein fused to HY4 gene product of Arabidopsis thaliana with linking region QRGRSA (protein)
# chain: QRGRSAMSGSVSGCGSGGCSIVWFRRDLRVEDNPALAAAVRAGPVIALFVWAPEEEGHYHPGRVSRWWLKNSLAQLDSSLRSLGTCLITKRSTDSVASLLDVVKSTGASQIFFNHLYDPLSLVRDHRAKDVLTAQGIAVRSFNADLLYEPWEVTDELGRPFSMFAAFWERCLSMPYDPESPLLPPKKIISGDVSKCVADPLVFEDDSEKGSNALLARAWSPGWSNGDKALTTFINGPLLEYSKNRRKADSATTSFLSPHLHFGEVSVRKVFHLVRIKQVAWANEGNEAGEESVNLFLKSIGLREYSRYISFNHPYSHERPLLGHLKFFPWAVDENYFKAWRQGRTGYPLVDAGMRELWATGWLHDRIRVVVSSFFVKVLQLPWRWGMKYFWDTLLDADLESDALGWQYITGTLPDSREFDRIDNPQFEGYKFDPNGEYVRRWLPELSRLPTDWIHHPWNAPESVLQAAGIELGSNYPLPIVGLDEAKARLHEALSQMWQLEAASRAAIENGSEEGLGDSAEVEEAPIEFPRDITMEETEPTRLNPNRRYEDQMVPSITSSLIRPEEDEESSLNLRNSVGDSRAEVPRNMVNTNQAQQRRAEPASNQVTAMIPEFNIRIVAESTEDSTAESSSSGRRERSGGIVPEWSPGYSEQFPSEENGIGGGSTTSSYLQNHHEILNWRRLSQTG
# modifications: left off: large carriers
# Legend:
# t-PA = t-PA (Homo sapiens, UniProt P00750); test: Cleavage of maltose binding protein-QRGRSA-HY4 fusion protein by t-PA (SDS-PAGE); format: biochemical; conditions: 150 nM enzyme, 16 hours at 25 C
# t-PA, sequence (P00750 36-562): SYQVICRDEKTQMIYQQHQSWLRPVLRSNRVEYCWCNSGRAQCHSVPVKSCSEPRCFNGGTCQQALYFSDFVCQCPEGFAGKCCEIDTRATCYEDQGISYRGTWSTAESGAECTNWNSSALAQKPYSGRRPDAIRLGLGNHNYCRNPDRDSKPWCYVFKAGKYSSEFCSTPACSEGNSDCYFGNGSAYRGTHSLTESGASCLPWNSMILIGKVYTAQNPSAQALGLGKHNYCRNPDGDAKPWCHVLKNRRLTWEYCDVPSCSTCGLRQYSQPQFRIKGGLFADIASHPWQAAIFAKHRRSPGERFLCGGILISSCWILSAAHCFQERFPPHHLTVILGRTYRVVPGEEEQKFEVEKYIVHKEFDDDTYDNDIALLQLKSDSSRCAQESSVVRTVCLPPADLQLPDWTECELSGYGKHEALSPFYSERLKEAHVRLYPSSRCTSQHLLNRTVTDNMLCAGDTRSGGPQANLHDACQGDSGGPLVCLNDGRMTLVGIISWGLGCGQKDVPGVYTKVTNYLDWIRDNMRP
# Experimental: (§1) The fusion consists of maltose binding protein fused to the amino terminus of the HY4 gene product of Arabidopsis thaliana with a linking region in between coding for the amino acid sequence QRGRSA, which is cleaved by t-PA between R and S. The concentration of fusion protein in each lane is […] and the concentration of u-PA or […] is 150 nM. The reaction buffer contains 50 mM Tris pH 7.5, 0.1 M NaCl, 1 mM EDTA, and 0.01% Tween 20. Reactions were set up in a total volume of […] and allowed to incubate 16 hours at 25 C. and then stopped by the addition of […] of 5× loading buffer and separated by electrophoresis on 12% polyacrylamide. The gel was stained with Coomassie Brilliant Blue 30 minutes and de-stained overnight.
# u-PA = target: T1, u-PA (Homo sapiens, UniProt P00749); test: Cleavage of maltose binding protein-QRGRSA-HY4 fusion protein by u-PA (SDS-PAGE); format: biochemical; conditions: 150 nM enzyme, 16 hours at 25 C
# T1 construct: purchased Jack Henkin (Abbott Laboratories)
# Experimental: as §1
molecule,measurement,setting,value
B1,cleavage of fusion protein by t-PA,t-PA,readily cleaved
same,cleavage of fusion protein by u-PA,u-PA,did not
